Data taken from US20040132157A1.

T1: Nma-Pro-Lys-Pro-Leu-Ala-Nva-Trp-Lys(DNP)-NH2
T1 chain: PKPLAXWK

T2: MOCAc-Arg-Pro-Lys-Pro-Tyr-Ala-Nva-Trp-Met-Lys(DNP)-NH2
T2 chain: RPKPYAXWMK


Tests used:
[1] = target: recombinant human ADAM protein (metalloprotease region and disintegrin region expressed in Escherichia coli from plasmid pMDH) (human) (UniProt Q9UKQ2); assay: cell-based or functional assay
[2] = target: T1, Nma-Pro-Lys-Pro-Leu-Ala-Nva-Trp-Lys(DNP) …
[3] = target: T2, MOCAc-Arg-Pro-Lys-Pro-Tyr-Ala-Nva-Trp-Me …

IC50 value (concentration of a test compound which 50% inhibits the protease activity) [1] [µM]	Molecule	fluorescent intensity (excitation 340 nm, measuring 450 nm) after 2 hours at 37 C [2]	fluorescent intensity (excitation 328 nm, 393 nm) after 22 hours at 37 C [3]
100	N-CBZ-Pro-Leu-Gly-hydroxamate (Sigma C8537) (peptide)		
	recombinant human ADAM protein (metalloprotease region and disintegrin region expressed in Escherichia coli from plasmid pMDH) (protein) VQEHEKYIEYYLVLDNGEFKRYNENQDEIRKRVFEMANYVNMLYKKLNTHVALVGMEIWTDKDKIKITPNASFTLENFSKWRGSVLSRRKRHDIAQLITATELAGTTVGLAFMSTMCSPYSVGVVQDHSDNLLRVAGTMAHEMGHNFGMFHDDYSCKCPSTICVMDKALSFYIPTDFSSCSRLSYDKFFEDKLSNCLFNAPLPTDIISTPICGNQLVEMGEDCDCGTSEECTNICCDAKTCKIKATFQCALGECCEKCQFKKAGMVCRPAKDECDLPEMCNGKSGNCPDDRFQVNGF	the fluorescent intensity in the case of addition of the enzyme solution was 180	the fluorescent intensity of 70 was shown when the protein was added
